Test results taken from US20080131510.

Legend:
[1] = target: T1, Lys*-Ala-Gly-Leu-Leu-Cys (SEQ ID NO:32)
T1 chain: KAGLLC

[2] = target: T2, Lys*-Gly-Leu-Cys (SEQ ID NO:33)
T2 chain: KGLC

[3] = target: T3, Lys*-Pro-Ala-Gly-Leu-Leu-Gly-Cys (SEQ ID NO:2), pendant in PEG(8000)DA hydrogel and complexed with Pt (not fully specified)
T3 chain: KPAGLLGC

[4] = target: T4, Lys*-Pro-Ala-Gly-Leu-Leu-Gly-Cys (SEQ ID NO:2)
T4 chain: KPAGLLGC

[5] = target: T1, Lys*-Ala-Gly-Leu-Leu-Cys (SEQ ID NO:32); assay: peptide cleavage kinetics by HPLC, 10 nM activated MMP; the filing calls Km 'affinity or binding strength'
[6] = target: T2, Lys*-Gly-Leu-Cys (SEQ ID NO:33); assay: as above
[7] = target: T4, Lys*-Pro-Ala-Gly-Leu-Leu-Gly-Cys (SEQ …); assay: as above

B1: matrix metalloprotease-2 (MMP-2), activated (protein)
chain: YNFFPRKPKWDKNQITYRIIGYTPDLDPETVDDAFARAFQVWSDVTPLRFSRIHDGEADIMINFGRWEHGDGYPFDGKDGLLAHAFAPGTGVGGDSHFDDDELWTLGEGQVVRVKYGNADGEYCKFPFLFNGKEYNSCTDTGRSDGFLWCSTTYNFEKDGKYGFCPHEALFTMGGNAEGQPCKFPFRFQGTSYDSCTTEGRTDGYRWCGTTEDYDRDKKYGFCPETAMSTVGGNSEGAPCVFPFTFLGNKYESCTSAGRSDGKMWCATTANYDDDRKWGFCPDQGYSLFLVAAHEFGHAMGLEHSQDPGALMAPIYTYTKNFRLSQDDIKGIQELYGASPDIDLGTGPTPTLGPVTPEICKQDIVFDGIAQIRGEIFFFKDRFIWRTVTPRDKPMGPLLVATFWPELPEKIDAVYEAPQEEKAVFFAGNEYWIYSASTLERGYPKPLTSLGLPPDVQRVDAAFNWSKNKKTYIFAGDKFWRYNEVKKKMDPGFPKLIADAWNAIPDNLDAVVDLQGGGHSYFFKGAYYLKLENQSLKSVKFGSIKSDWLGC
Kcat/Km [1]: 171 M⁻¹ s⁻¹
Vmax [1]: 6.02e-09 M/s
kcat [1]: 0.24 s⁻¹
Kcat/Km [2]: 439 M⁻¹ s⁻¹
Vmax [2]: 8.8e-10 M/s
kcat [2]: 0.035 s⁻¹
release of cleaved fragment from the PEG(8000)DA hydrogels [3]: the addition of MMP-2 and MMP-9 showed a significantly higher release of cleaved fragment from the PEG(8000)DA hydrogels compared to the control
Kcat/Km [4]: 10700 M⁻¹ s⁻¹
Vmax [4]: 2.7e-07 M/s
kcat [4]: 10.7 s⁻¹
Km [5]: 1400 µM
Km [6]: 81 µM
Km [7]: 1000 µM
